Reference: the RNAGym collection of RNA variant scans (doi:10.7554/elife.80360)

B1: HDV Ribozyme (parent)
chain: GGCCGGCAUGGUCCCAGCCUCCUCGCUGGCGCCGGCUGGGCAACAUUCCGAGGGGACCGUCCCCUCGGUAAUGGCGAAUGGGACCCA

Variants of: B1
Assay: self-cleavage, relative activity (ratio to wild type); higher = more cleavage; co-transcriptional
Variant G11A C57G has a self-cleavage of 0.432.
G11A C57U showed a self-cleavage of 0.256.
For G11A C57A, the self-cleavage was 0.45.
G10U G82C showed a self-cleavage of 0.089.
Work on G10U G82U yielded a self-cleavage of 0.248.
Work on G10U G73U yielded a self-cleavage of 0.0639.
Work on G10U G73C yielded a self-cleavage of 0.0831.
For G11U A45U, the self-cleavage was 0.217.
G11A A70G gave a self-cleavage of 0.365.
G11A A70U gave a self-cleavage of 0.246.
With G11U G31U the self-cleavage was 0.129.
Work on G11U G31A yielded a self-cleavage of 0.179.
Variant G11U C84G has a self-cleavage of 0.489.
G10C U20G gave a self-cleavage of 0.151.
Variant G10C U20C has a self-cleavage of 0.0739.
U12A A16C gave a self-cleavage of 0.499.
Work on G11U C30G yielded a self-cleavage of 0.0767.
With G11C G53A the self-cleavage was 0.344.
G11C G53C gave a self-cleavage of 0.291.
For G11C G53U, the self-cleavage was 0.415.
With U12A G39A the self-cleavage was 0.225.
Variant G11A A42G has a self-cleavage of 0.0692.
Work on G11A A42C yielded a self-cleavage of 0.101.
For G11A U60A, the self-cleavage was 0.356.
U12A G53U gave a self-cleavage of 0.318.
Variant G10U U60C has a self-cleavage of 0.767.
With G10U U60G the self-cleavage was 0.724.
For G10U U65C, the self-cleavage was 0.831.
In the case of U12A C41U, the self-cleavage is reported as 0.147.
For G10U A70G, the self-cleavage was 0.858.
In the case of U12C A70G, the self-cleavage is reported as 0.692.
For U12A C58G, the self-cleavage was 0.383.
U12A C58A gave a self-cleavage of 0.312.
In the case of G10U A16C, the self-cleavage is reported as 0.906.
With G10U A16G the self-cleavage was 0.618.
Work on U12C C22G yielded a self-cleavage of 0.
G11C C85G gave a self-cleavage of 0.831.
Work on G11U A56C yielded a self-cleavage of 0.332.
G11A C61G gave a self-cleavage of 0.332.
For G11U G73A, the self-cleavage was 0.138.
For G11U G73C, the self-cleavage was 0.126.
With G11A U27A the self-cleavage was 0.815.
G11A U27C gave a self-cleavage of 0.447.
For G10U C48A, the self-cleavage was 0.698.
For G11A G81A, the self-cleavage was 0.0639.
Variant G11A G81C has a self-cleavage of 0.0396.
G11A G81U gave a self-cleavage of 0.137.
G11C C62G showed a self-cleavage of 0.214.
G11C C62U gave a self-cleavage of 0.271.
G11A C36G showed a self-cleavage of 0.151.
Variant G11A C36A has a self-cleavage of 0.0446.
G11A C22G showed a self-cleavage of 0.0193.
G10U C19A showed a self-cleavage of 0.0946.
Variant U12A C64U has a self-cleavage of 0.178.
U12A C64A gave a self-cleavage of 0.26.
In the case of G11C A43U, the self-cleavage is reported as 0.0583.
G11C A43C gave a self-cleavage of 0.
G10U A71G showed a self-cleavage of 0.799.
G10U A71U showed a self-cleavage of 0.639.
Variant G11C C21G has a self-cleavage of 0.
Variant G11A G35U has a self-cleavage of 0.149.
G11C C64G gave a self-cleavage of 0.514.
Work on G10U C41A yielded a self-cleavage of 0.892.
Work on G10U C41U yielded a self-cleavage of 0.583.
G10U C30G showed a self-cleavage of 0.0989.
For U12C A71C, the self-cleavage was 0.0831.
For U12C A71G, the self-cleavage was 0.287.
With U12A G55U the self-cleavage was 0.185.
U12A G55A gave a self-cleavage of 0.415.
For G11U A83U, the self-cleavage was 0.138.
With G11U A83G the self-cleavage was 0.175.
Work on G10U C61U yielded a self-cleavage of 0.684.
For G10C U12A, the self-cleavage was 0.123.
Work on G10U G52C yielded a self-cleavage of 0.639.
With G11U G35U the self-cleavage was 0.115.
With G11U G25U the self-cleavage was 0.0623.
In the case of G11A A87C, the self-cleavage is reported as 0.521.
Variant G11C G17U has a self-cleavage of 0.332.
U12A A43U showed a self-cleavage of 0.147.
For G10U C84A, the self-cleavage was 0.519.
Variant G11C G35A has a self-cleavage of 0.125.
For G11C G29C, the self-cleavage was 0.0852.
For G11C U37A, the self-cleavage was 0.
Work on G11C U37C yielded a self-cleavage of 0.201.
